Measured values published in article PMC7141177 (Journal of molecular biology, 2018).

Legend:
[1] = biological target: AKMT-ΔNTD (Toxoplasma gondii, UniProt B9Q0K5); assay: isothermal titration calorimetry; type: binding
[2] = biological target: AKMT-ΔNTD (aa289–709) (Toxoplasma gondii); assay: SEC-MALS
[3] = biological target: AKMT-ΔNTD-short (aa309–709) (Toxoplasma gondii); assay: SEC-MALS
[4] = biological target: full-length T. gondii apical complex lysine (K) methyltransferase (AKMT, aa1–709) (Toxoplasma gondii); assay: SEC-MALS

Molecule: Nc1ncnc2c1ncn2[C@@H]1O[C@H](C[C@@H](N)CC[C@H](N)C(=O)O)[C@@H](O)[C@H]1O [sinefungin]
- Kd [1]: 260 nM

Molecule: AKMT-ΔNTD (aa289–709) (domain or fragment)
- stoichiometry N [2]: 2

Molecule: AKMT-ΔNTD-short (aa309–709) (domain or fragment)
- stoichiometry N [3]: 2

Molecule: full-length T. gondii apical complex lysine (K) methyltransferase (AKMT, aa1–709) (enzyme)
- stoichiometry N [4]: 2
